The supplement of paper PMC9170038

System: MS2 coat protein
Test: apparent KD of MS2 coat protein; designed switch direction (-1 OFF switch, 1 ON switch): -1; higher = weaker reporter binding
Procedure, shortened: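 Designed RNA switches with common flanks were made on Illumina chips by stalled E. coli RNA polymerase. Titration with SNAP-549-labelled MS2 coat protein doubled from 0.7 or 1.5 nM up to 3 µM. Apparent KD is each design's median over clusters after curve-fitting normalised fluorescence.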

[1] = Eterna round: R95, input ligand: microRNA oligo, concentration not stated
[2] = Eterna round: R95, input ligand: FMN 200 uM
[3] = Eterna round: R95, input ligand: none
[4] = input ligand: microRNA oligo, concentration not stated

| Sequence | apparent KD of MS2 coat protein (input ligand: FMN 200 uM) [µM] | apparent KD of MS2 coat protein (input ligand: none) [µM] | apparent KD of MS2 coat protein [1] [µM] | apparent KD of MS2 coat protein [2] [µM] | apparent KD of MS2 coat protein [3] [µM] | apparent KD of MS2 coat protein [4] [µM] |
| --- | --- | --- | --- | --- | --- | --- |
| GAAUAGAGAGGAUAUGCGUAGUAGGUAGUAAGAUAUAUAUGACAUGAGGAUCACCCAUGUAGAAGGCUCAGAUA [EX2 #2] (Eterna round: R97, puzzle: Exclusion 2) | 0.0383 | 0.0358 | – | – | – | – |
| CCAAGUCCAUAGGAUAUCGACCAGUCCUCUGGAUGAGAAGGAUGAACUUGAGGAUCACCCAAGUGGCCUAAUAC [Eddilesove] (Eterna round: R97, puzzle: Exclusion 6) | 0.0501 | 0.0239 | – | – | – | – |
| AUCUUGUAAGGAUAUCUUACAAGUGACUUCGGUCACAGUUAAGAGAAGGUACAUGAGGAUCACCCAUGUAUAAC [Ex4-3: 38] (puzzle: Exclusion 4) | – | – | 0.0238 | – | – | – |
| GAUUAUGCGAGCUUUAGGGACAUGAGGAUCACCCAUGUUCGUCUUAUUGAUCUGGAUGCGCUAACAUACCUAAAUCU [JMF 45] (puzzle: Sensor v3, turn-off variant 1) | – | – | 0.0711 | 0.065 | 0.0629 | – |
| UUAAAUCAUGUAGGAUAUGCGUGGCGAAGCUAUGCAGAAGGACAUGAGGAUCACCCAUGUUCUGCGGUCUGCGUACAGAUCGCA [JL ENG1 1.05] (Eterna round: R96, puzzle: Exclusion NG 1) | 0.502 | 0.0427 | – | – | – | 0.0291 |
| GAUCCUUCUGUUAGGAUAUGCUUUGGGCUUCCGCAGCAGAAGGAACAUGAGGAUCACCCAUGUCCAAUGCCAUC [salish99_bmex4_r4_505] (Eterna round: R97, puzzle: Brourd's mod of Exclusion 4) | 0.0461 | 0.0391 | – | – | – | – |
| UGUGUGAGACAGGAUAUGCCGGUUGUGUUGCUGGUAGAAGGGUCUACAUGAGGAUCACCCAUGUGGCCGGUUGG [Ex6 #80] (Eterna round: R97, puzzle: Exclusion 6) | 0.0191 | 0.0173 | – | – | – | – |
| CGCCUACAUGAGGAUCACCCAUGUGAGGAUAUCCUGCGAGGAUCAAAAGAUCCUCGUGGGAGAAGGCGCCUGGA [Omei Ex1 B6] (Eterna round: R97, puzzle: Exclusion 1) | 0.0376 | 0.0131 | – | – | – | – |
| AGAUUACGUUAGGAUAUCCGGCCUGACGAGGAUGGAGAAGGAGCGACAUGAGGAUCACCCAUGUGUGGCACUCC [Eternabot (L1) Solution 76] (Eterna round: R97, puzzle: Exclusion 6) | 0.0177 | 0.0183 | – | – | – | – |
| AAGAGGAAUAUAGGAUAUGAGGCUGAGACGGCGUCAGAAGGGUAUCCAGAGUUACAUGAGGAUCACCCAUGUGGUGAUUUCUAA [Exclusion NG 1 V2 1] (Eterna round: R96, puzzle: Exclusion NG 1) | 0.0092 | 0.0812 | – | – | – | 0.00574 |
| UUUUAACAUGAGGAUCACCCAUGUGAGGAUAUCGAAAUUUAUAUUAAUAUUAAUUAUUCGAGAAGGCACAUUUU [JMF 29] (puzzle: Exclusion 1) | – | – | 0.114 | – | – | – |
| UUGUUAUAUGUAGGAUAUGCAUAUUAUUAUUAUGCAGAAGGACAUGAGGAUCACCCAUGUAUAUUAUUAUUAUAUAUUAUAUAU [Title] (Eterna round: R96, puzzle: Exclusion NG 1) | – | – | – | – | – | 0.0224 |
| GGUUUACAAGGAUAUACAAAGGUCUUGUGAUCUGUGCGAGGACAUGAGGAUCACCCAUGUAGAAGGUGUCUGCU [Eternabot (L2) Solution 77] (Eterna round: R97, puzzle: Exclusion 2) | 0.193 | 0.114 | – | – | – | – |
| UUUGUGUCAGGAUAUGAGUAGUAGAACAAUAGUACUACUACUCAGAAGGGACAUGAGGAUCACCCAUGUUCCUC [Fiskers Ex 4 Super stable 44 mod 21] (puzzle: Exclusion 4) | – | – | 0.019 | – | – | – |
| CGGCCGUUUGUAAGGAUAUAACUAGUUGCGACCAGUUAGAAGGUACAUGAGGAUCACCCAUGUCUUCCAGUGGC [Eternabot (L1) Solution 76] (Eterna round: R97, puzzle: Brourd's mod of Exclusion 4) | 0.0162 | 0.0151 | – | – | – | – |
| UUCAUGUAAGGAUAUCGUGCAAGUUUCAAAAGAGGCUUGUGCGAGAAGGUACAUGAGGAUCACCCAUGUAGGUU [Omei Ex4 B9] (Eterna round: R97, puzzle: Exclusion 4) | 0.0869 | 0.754 | – | – | – | – |
| AACCUGAGGCUUUGCUUUAGGUGUACAUGAGGAUCACCCAUGUAGGAUAUGGUAGGCUUUGCUUACCAGAAGGACAUGUUAAUU [JL ENG3 1.11] (Eterna round: R96, puzzle: Exclusion NG 3) | 0.201 | 0.0471 | – | – | – | 0.0489 |
| AGAGAGUCAGGAUAUCGAAGGUAGAGAAAAGGAGAGUGGUACGAGAAGGGACAUGAGGAUCACCCAUGUAGGUG [JR_Exclusion4)Sub013] (puzzle: Exclusion 4) | – | – | 0.431 | 0.343 | 0.441 | – |
| GGUGUGCUAGGAUAUGCUUUGGGCUCGCUUUCCUUCGUUUUACUUGAGGAUCACCCAAGUAGAAGGUGCUUGCC [salish99_ex2_r4_038] (Eterna round: R97, puzzle: Exclusion 2) | 0.013 | 0.013 | – | – | – | – |
| AUCGUGUGAGGAUAUCGAUGUUGGACGUCUAGGUCUGUGCGCGAGAAGGCACAUGAGGAUCACCCAUGUAAUGG [jl-ex4-4.26 ViennaUCT mod] (Eterna round: R97, puzzle: Exclusion 4) | 0.137 | 0.347 | – | – | – | – |
| AGUAGUAGUAUCCGAUCCUACAUGAGGAUCACCCAUGUAGCUAGACGUGCACGCGAUGCUCGUCGGACUACCAGAUG [salish99_TOv1_r3_043] (puzzle: Sensor v3, turn-off variant 1) | – | – | 0.0469 | 0.048 | 0.0634 | – |
| AAGAAACAUGAGGAUCACCCAUGUGAGGAUAUGAAAAAUAAAAUAAAAUAAAUAAUAAUCAGAAGGCACAAAGG [Mat - Mod of Hog D7] (puzzle: Exclusion 1) | – | – | 0.0341 | 0.0373 | 0.042 | – |
| UAAAGCUUUGAGAUCCUUAACAUGAGGAUCACCCAUGUUCGUCUUAUGAUGGUCUGAUCCCUGAGGAUCGGACCGUU [Mat - Sensor v3 - turn-off var 1 - JL Mod - D5] (puzzle: Sensor v3, turn-off variant 1) | – | – | 0.0266 | 0.269 | 0.252 | – |
| UUGUUGUAUGUAGGAUAUGCAUAUUAUUAUUAUGCAGAAGGACAUGAGGAUCACCCAUGUAUGUUAUUAUUAUGUGUUAUGUGU [Title] (Eterna round: R96, puzzle: Exclusion NG 1) | – | – | – | – | – | 0.0339 |
| CGGAUACAUGAGGAUCACCCAUGUGAGGAUAUCGUACGUUCGUCGAUAGACGAUCGUACGAGAAGGCAUGACCG [Mat - Exclusion 1 - Eli Mod - D34] (Eterna round: R97, puzzle: Exclusion 1) | 0.0713 | 0.2 | – | – | – | – |
| AGUUGGCGAGGAUAUACAUGAGGAUCACCCAUGUGUGAGAUAUAAGUGAGGUAAAUAUGUAGAAGGCGCUGACA [JR_Ex3_Sub079] (Eterna round: R97, puzzle: Exclusion 3) | 0.0184 | 0.425 | – | – | – | – |
